# B1: P-selectin (Homo sapiens), P16109 (parent)
# chain: MANCQIAILYQRFQRVVFGISQLLCFSALISELTNQKEVAAWTYHYSTKAYSWNISRKYCQNRYTDLVAIQNKNEIDYLNKVLPYYSSYYWIGIRKNNKTWTWVGTKKALTNEAENWADNEPNNKRNNEDCVEIYIKSPSAPGKWNDEHCLKKKHALCYTASCQDMSCSKQGECLETIGNYTCSCYPGFYGPECEYVRECGELELPQHVLMNCSHPLGNFSFNSQCSFHCTDGYQVNGPSKLECLASGIWTNKPPQCLAAQCPPLKIPERGNMTCLHSAKAFQHQSSCSFSCEEGFALVGPEVVQCTASGVWTAPAPVCKAVQCQHLEAPSEGTMDCVHPLTAFAYGSSCKFECQPGYRVRGLDMLRCIDSGHWSAPLPTCEAISCEPLESPVHGSMDCSPSLRAFQYDTNCSFRCAEGFMLRGADIVRCDNLGQWTAPAPVCQALQCQDLPVPNEARVNCSHPFGAFRYQSVCSFTCNEGLLLVGASVLQCLATGNWNSVPPECQAIPCTPLLSPQNGTMTCVQPLGSSSYKSTCQFICDEGYSLSGPERLDCTRSGRWTDSPPMCEAIKCPELFAPEQGSLDCSDTRGEFNVGSTCHFSCDNGFKLEGPNNVECTTSGRWSATPPTCKGIASLPTPGVQCPALTTPGQGTMYCRHHPGTFGFNTTCYFGCNAGFTLIGDSTLSCRPSGQWTAVTPACRAVKCSELHVNKPIAMNCSNLWGNFSYGSICSFHCLEGQLLNGSAQTACQENGHWSTTVPTCQAGPLTIQEALTYFGGAVASTIGLIMGGTLLALLRKRFRQKDDGKCPLNPHSHLGTYGVFTNAAFDPSP
# partner: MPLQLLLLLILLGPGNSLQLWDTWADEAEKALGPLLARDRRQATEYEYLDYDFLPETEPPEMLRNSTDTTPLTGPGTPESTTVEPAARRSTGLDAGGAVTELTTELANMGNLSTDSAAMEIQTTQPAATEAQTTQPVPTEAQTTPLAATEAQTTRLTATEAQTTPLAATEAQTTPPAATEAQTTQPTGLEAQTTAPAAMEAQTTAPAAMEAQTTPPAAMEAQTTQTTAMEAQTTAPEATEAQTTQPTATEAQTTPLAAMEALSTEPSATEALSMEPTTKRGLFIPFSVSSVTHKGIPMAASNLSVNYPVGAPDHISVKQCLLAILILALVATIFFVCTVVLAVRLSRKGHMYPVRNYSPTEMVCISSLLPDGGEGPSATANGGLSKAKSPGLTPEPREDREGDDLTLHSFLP
# Variants of: B1
# Conditions: with selpl_human SELPLG
row,Variant,effect of a mutation on the interaction
1,A69H,increasing interaction

# Reference: IntAct's records for PubMed 19118202
